Assay results as given in US8110672B2, “Promoter engineering and genetic control” (priority 2005, dated 2012).

Key:
[1] = system: gfp transcript; assay: Transcriptional analysis: quantitative RT-PCR of the gfp transcript; assay type: cell-based, E. coli; details: cultures grown 3 hours, relative level
Description: Cultures inoculated as previously were grown for 3 hours and the total RNA was extracted from a 1.5 mL sample with a commercial kit (RNEasy, Qiagen Corp). All samples were diluted to a final concentration of 20 μg/mL and stored at −20° C. A commercial kit for RT-PCR (iScript One-Step RT-PCR Kit with SYBR Green, Bio-Rad) was used with a CCD-equipped thermal cycler (iCycler, Bio-Rad) for RT-PCR of the gfp transcript. Primers (sense-[…] (SEQ ID NO: 4) and antisense-[…] (SEQ ID NO: 5)) were used at a final concentration of 100 nM and 20 ng of RNA was used as template in each 50 μL reaction. We performed duplicate cultures for each clone and duplicate extractions for each culture. The threshold cycles for each sample were calculated from the fluorescence data with proprietary software (Bio-Rad, Inc).
To characterize the promoter library directly at the transcriptional level, the relative mRNA levels of gfp transcripts in the above cultures were determined by quantitative RT-PCR. The high correlation between fluorescence and mRNA level (FIG. 4) confirmed that expression was transcriptionally controlled. The data was obtained where GFP fluorescence levels were modulated by the level of oxygen. In this way, selection for promoters, which had differential expression in high and low oxygen conditions was accomplished.

[2] = system: gfp
Description: Shake flasks containing 50 mL of M9G/CAA medium were inoculated with 1% v/v of an overnight LB culture of a library clone. The culture turbidity (A600 nm) and fluorescence (Packard Fusion microplate fluorescence reader, Perkin-Elmer, Boston, Ma.) were monitored as a function of time. Fluorescence readings taken during the exponential growth phase were plotted as a function of turbidity. The best-fit slope to this line represents the exponential-phase steady-state concentration of GFP, fSS. Because fSS is affected by the cell growth rate, oxygen-dependent maturation constant of GFP, and the protease-mediated degradation of GFP as well as the promoter-driven synthesis of new GFP, it is not a suitable metric for promoter strength. […] Under this model and under the assumption that the rate constant of protease-mediated degradation is the same for mature GFP as its precursor polypeptide, P, the rate of promoter-driven production of GFP, can be expressed as in Equation 1.
In Equation 1, μ is the growth rate, m is maturation constant for oxygen-dependent fluorophore activation of GFP, D is the first-order rate constant for protease-mediated degradation. […] The parameters fSS and μ were measured separately for each member of the promoter library. P, in relative fluorescence units per absorbance unit per hour, was calculated from Equation 1 for each clone. […]

[3] = system: CAT; assay: Chloramphenicol resistance of pZE-promoter-cat constructs (MIC on LB agar); assay type: cell-based, E. coli; details: lowest chloramphenicol concentration that inhibited growth; promoter driving cat, LB agar with kanamycin, overnight 37° C.
Description: pZE-promoter-cat plasmids were created by PCR of the CAT gene from pACYC184 using primers CAT_Sense_MluI: […] (SEQ ID NO: 6) and CAT_Anti_KpnI: […] (SEQ ID NO: 7) and ligated into the proper pZE-promoter construct which was previously digested by KpnI and MluI. Exponential-phase cultures grown in LB supplemented with kanamycin were plated onto LB agar supplemented with kanamycin and various concentrations of chloramphenicol ranging from 0 to 500 μg/ml. After overnight incubation at 37° C., the lowest concentration of chloramphenicol that inhibited the growth of a clone was recorded.
To verify the constitutive nature of all the promoters, each was redeployed into a new construct driving the reporter gene cat. Cultures bearing these constructs were assayed for resistance to chloramphenicol on a rich, solid-phase medium. […] Moreover, these conditions test the promoter library in contrasting medium and growth environments (liquid minimal medium vs. solid complex medium) further underscoring the constitutive nature of the library promoters.

B1: PLTetO1: PLteto-1 promoter, sequence SEQ ID NO: 34, relative to which the mutated promoters are defined (nucleic acid)
DNA: CAATTCCGACGTCTAAGAAACCATTATTATCATGACATTAACCTATAAAAATAGGCGTATCACGAGGCCCTTTCGTCTTCACCTCGAGTCCCTATCAGTGATAGAGATTGACATCCCTATCAGTGATAGAGATACTGAGCACATCAGCAGGACGCACTGACC
modifications: mutant sequence of bacteriophage lambda tetO promoter
Question: Which results are given for B1?
Answer: Relative mRNA [1]: 1; Promoter Strength ([2]; P from Equation 1, pZE-promoter-gfp(ASV) plasmid, M9G/CAA medium, exponential phase, duplicate cultures): 145,806.85 relative fluorescence units per absorbance unit per hour; Average Promoter Metric ([2]; average of the scaled mRNA and fluorescence data): 0.8685; Cm MIC [3]: 338 µg/mL
